Assay results taken from publication PMC3698035, “Nectin-2 is a potential target for antibody therapy of breast and ovarian cancers” (Molecular Cancer, 2013).

Molecular target: the molecule itself
Experiment: ELISA; ELISA-based time-resolved fluorescence spectroscopy assay; unlabeled Nectin-2-ED-hFc immobilised on a Delfia Clear Strip Plate, Eu-labeled Nectin-2-ED-hFc at 3.2 ug/mL added together with anti-Nectin-2 mAb at 30 ug/mL or a human IgG control, 1.5 h at room temperature

B1: Nectin-2-ED-hFc (Fc fusion, human, UniProt Q92692 32-361, looked up)
chain: QDVRVQVLPEVRGQLGGTVELPCHLLPPVPGLYISLVTWQRPDAPANHQNVAAFHPKMGPSFPSPKPGSERLSFVSAKQSTGQDTEAELQDATLALHGLTVEDEGNYTCEFATFPKGSVRGMTWLRVIAKPKNQAEAQKVTFSQDPTTVALCISKEGRPPARISWLSSLDWEAKETQVSGTLAGTVTVTSRFTLVPSGRADGVTVTCKVEHESFEEPALIPVTLSVRYPPEVSISGYDDNWYLGRTDATLSCDVRSNPEPTGYDWSTTSGTFPTSAVAQGSQLVIHAVDSLFNTTFVCTVTNAVGMGRAEQVIFVRETPNTAGAGATGGI
modifications: europium N1 ITC chelate (only on the Eu-labeled copy added in solution in the Nectin-2-Nectin-2 assay)
notes: signal peptide in the construct; Nectin-2, cloned from cDNA of the A549 human lung cancer cell line, extracellular domain a.a; 1-361; Plasmid pcDNA3.1-Nectin-2-ED-hFc; In the Nectin-2-Nectin-2 assay one copy was unlabeled on the plate and the other Eu-labeled in solution; also called Nectin-2 extracellular domain (a.a. 1-361) fused to the human IgG1 Fc region; source: FreeStyle 293 F cells, …
B1: binds.
